Results taken from patent publication US20250388704A1 (Xencor, published 2025).

B1: XENP28428 (antibody, V domains shown)
VH: EVQLLESGGGLVQPGGSLRLSCAASGFTFSSYAMSWVRQAPGKGLEWVSTISGSGDSTYYADSVKGRFTISRDNSKNTLYLQMNSLRAEDTAVYYCAKSGPGLRQVGFDYWGQGTLVTVSS
VL: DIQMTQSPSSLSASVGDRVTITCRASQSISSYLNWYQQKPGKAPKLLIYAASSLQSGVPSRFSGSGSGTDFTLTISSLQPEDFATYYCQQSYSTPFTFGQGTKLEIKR
notes: Bivalent IgG1 mAb with Fc gamma R ablation variants, made in HEK293E; also called anti-CD28 mAb based on clone 1A7; parental anti-CD28 mAb 1A7; copies: 2 + 2
B2: XENP38934 PSMA (F02) x CD28 (180nM) (bispecific antibody)
heavy: EVQLLESGPGLVKPSETLSLTCTVSGGSIISYYWSWIRQPAGKGLEWIGRIYSSGSTNYNPSLKSRVTMSVDTSKNQFSLKLSSVTAADTAVYYCAKVGVWPGAFDIWGQGTMVTVSSASTKGPSVFPLAPSSKSTSGGTAALGCLVKDYFPEPVTVSWNSGALTSGVHTFPAVLQSSGLYSLSSVVTVPSSSLGTQTYICNVNHKPSDTKVDKKVEPKSCDKTHTCPPCPAPPVAGPSVFLFPPKPKDTLMISRTPEVTCVVVDVKHEDPEVKFNWYVDGVEVHNAKTKPREEEYNSTYRVVSVLTVLHQDWLNGKEYKCKVSNKALPAPIEKTISKAKGQPREPQVYTLPPSREEMTKNQVSLTCDVSGFYPSDIAVEWESDGQPENNYKTTPPVLDSDGSFFLYSKLTVDKSRWEQGDVFSCSVMHEALHNHYTQKSLSLSPGK
scFv-Fc: not shown
light: not shown
notes: copies: 1 + 1 + 1
B3: PSMA x CD28 bsAb with D01v2 PSMA binding domain and 1A7_H1_L1.71 CD28 binding domain (Platform X) (bispecific antibody)
heavy: EVQLVESGGDLVQPGGSLRLSCAASGFTFNNYNMNWVRQAPGKGLEWVSHISTSSSNKYYADSVKGRFSISRDIAKNSMYLQMNSLRDEDTAVYYCAREGVGADYGDYYYYGMDVWGQGTTVTVSSASTKGPSVFPLAPSSKSTSGGTAALGCLVKDYFPEPVTVSWNSGALTSGVHTFPAVLQSSGLYSLSSVVTVPSSSLGTQTYICNVNHKPSDTKVDKKVEPKSCDKTHTCPPCPAPPVAGPSVFLFPPKPKDTLMISRTPEVTCVVVDVKHEDPEVKFNWYVDGVEVHNAKTKPREEEYNSTYRVVSVLTVLHQDWLNGKEYKCKVSNKALPAPIEKTISKAKGQPREPQVYTLPPSREEMTKNQVSLTCDVSGFYPSDIAVEWESDGQPENNYKTTPPVLDSDGSFFLYSKLTVDKSRWEQGDVFSCSVMHEALHNHYTQKSLSLSPGK
scFv-Fc: not shown
light: QSVLTQPASVSGSPGQSITISCTGTSSDVGGYNYVSWYQQHPGKAPKLMIYEVSNRPSGVSNRFSGSKSGNTASLTISGLQAEDEADYYCSSYTSSYTYVFGTGTKLTVLGQPKAAPSVTLFPPSSEELQANKATLVCLISDFYPGAVTVAWKADSSPVKAGVETTTPSKQSNNKYAASSYLSLTPEQWKSHRSYSCQVTHEGSTVEKTVAPTECS
notes: D01v2 is D01 with the degradation liabilities removed
B4: PSMA x CD28 bsAb with D01 PSMA binding domain and 1A7_H1_L1.71 CD28 binding domain (Platform X) (bispecific antibody)
heavy: EVQLVESGGDLVQPGGSLRLSCAASGFTFNNYNMNWVRQAPGKGLEWVSHISTSSSNKYYADSVKGRFSISRDIAKNSMYLQMNSLRDEDTAVYYCARDGVGADYGDYYYYGMDVWGQGTTVTVSSASTKGPSVFPLAPSSKSTSGGTAALGCLVKDYFPEPVTVSWNSGALTSGVHTFPAVLQSSGLYSLSSVVTVPSSSLGTQTYICNVNHKPSDTKVDKKVEPKSCDKTHTCPPCPAPPVAGPSVFLFPPKPKDTLMISRTPEVTCVVVDVKHEDPEVKFNWYVDGVEVHNAKTKPREEEYNSTYRVVSVLTVLHQDWLNGKEYKCKVSNKALPAPIEKTISKAKGQPREPQVYTLPPSREEMTKNQVSLTCDVSGFYPSDIAVEWESDGQPENNYKTTPPVLDSDGSFFLYSKLTVDKSRWEQGDVFSCSVMHEALHNHYTQKSLSLSPGK
scFv-Fc: not shown
light: QSVLTQPASVSGSPGQSITISCTGTSSDVGGYNYVSWYQQHPGKAPKLMIYEVSNRPSGVSNRFSGSKSGNTASLTISGLQAEDEADYYCSSYTSSYTYVFGTGTKLTVLGQPKAAPSVTLFPPSSEELQANKATLVCLISDFYPGAVTVAWKADSSPVKAGVETTTPSKQSNNKYAASSYLSLTPEQWKSHRSYSCQVTHEGSTVEKTVAPTECS
B5: PSMA x CD28 bsAb with A11 PSMA binding domain and 1A7_H1_L1.71 CD28 binding domain (Platform X) (bispecific antibody)
heavy: QVQLQESGGDVVQPGRSLRLSCAASGFSFSGYGLHWVRQAPGRGLEWVTLISYDGSNKYYADSVKGRFTISRDNSKNTLYLQMNSLRAEDTAVYYCAKTTVSDPYYYGMDVWGQGTTVTVSSASTKGPSVFPLAPSSKSTSGGTAALGCLVKDYFPEPVTVSWNSGALTSGVHTFPAVLQSSGLYSLSSVVTVPSSSLGTQTYICNVNHKPSDTKVDKKVEPKSCDKTHTCPPCPAPPVAGPSVFLFPPKPKDTLMISRTPEVTCVVVDVKHEDPEVKFNWYVDGVEVHNAKTKPREEEYNSTYRVVSVLTVLHQDWLNGKEYKCKVSNKALPAPIEKTISKAKGQPREPQVYTLPPSREEMTKNQVSLTCDVSGFYPSDIAVEWESDGQPENNYKTTPPVLDSDGSFFLYSKLTVDKSRWEQGDVFSCSVMHEALHNHYTQKSLSLSPGK
scFv-Fc: not shown
light: SYELTQPPSVSVAPGQTARITCGGNNIGSKSVHWYQQKPGQAPVLVVYDDSDRPSGIPERFSGTNSGNTATLTISRAEAGDEADYYCQVWDSSSDHVVFGGGTKLTVLGQPKAAPSVTLFPPSSEELQANKATLVCLISDFYPGAVTVAWKADSSPVKAGVETTTPSKQSNNKYAASSYLSLTPEQWKSHRSYSCQVTHEGSTVEKTVAPTECS
B6: XENP38938 PSMA (F07) x CD28 (180nM) (bispecific antibody)
heavy: not shown
scFv-Fc: not shown
light: SYELTQPPSVSVAPGQTARITCGGNNIGSKSVHWYQQKPGQAPVLVVYDDSDRPSGIPERFSGSNSGNTATLTISRVEAGDEADYYCQVWDSSTDHVVFGGGTKLTVLGQPKAAPSVTLFPPSSEELQANKATLVCLISDFYPGAVTVAWKADSSPVKAGVETTTPSKQSNNKYAASSYLSLTPEQWKSHRSYSCQVTHEGSTVEKTVAPTECS
notes: copies: 1 + 1 + 1
B7: XENP37902 (bispecific antibody)
heavy: EVQLVQSGAEVKKPGASVKVSCKTSGYTFTEYTIHWVRQAPGQSLEWMGNINPNNGGTTYNQKFQGRVTITVDKSTSTAYMELSSLRSEDTAVYYCAAGWNFDYWGQGTLVTVSSASTKGPSVFPLAPSSKSTSGGTAALGCLVKDYFPEPVTVSWNSGALTSGVHTFPAVLQSSGLYSLSSVVTVPSSSLGTQTYICNVNHKPSDTKVDKKVEPKSCDKTHTCPPCPAPPVAGPSVFLFPPKPKDTLMISRTPEVTCVVVDVKHEDPEVKFNWYVDGVEVHNAKTKPREEEYNSTYRVVSVLTVLHQDWLNGKEYKCKVSNKALPAPIEKTISKAKGQPREPQVYTLPPSREEMTKNQVSLTCDVSGFYPSDIAVEWESDGQPENNYKTTPPVLDSDGSFFLYSKLTVDKSRWEQGDVFSCSVMHEALHNHYTQKSLSLSPGK
scFv-Fc: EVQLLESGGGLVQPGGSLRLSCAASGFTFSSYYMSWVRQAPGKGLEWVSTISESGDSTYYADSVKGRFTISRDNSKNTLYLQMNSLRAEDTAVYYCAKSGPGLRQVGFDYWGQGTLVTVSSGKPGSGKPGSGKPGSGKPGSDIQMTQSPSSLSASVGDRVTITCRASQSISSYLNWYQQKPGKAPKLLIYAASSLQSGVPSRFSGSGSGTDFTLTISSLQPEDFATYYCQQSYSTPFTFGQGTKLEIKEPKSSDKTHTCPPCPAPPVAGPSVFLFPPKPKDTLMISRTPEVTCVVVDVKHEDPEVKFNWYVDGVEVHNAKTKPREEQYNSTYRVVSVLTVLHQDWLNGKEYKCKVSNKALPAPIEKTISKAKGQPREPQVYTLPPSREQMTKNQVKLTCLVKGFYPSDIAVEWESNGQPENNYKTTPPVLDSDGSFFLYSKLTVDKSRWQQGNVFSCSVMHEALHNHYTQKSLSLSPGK
light: DIVMTQSPDSLAVSLGERATLSCRASQDVGTAVDWYQQKPDQSPKLLIYWASTRHTGVPDRFTGSGSGTDFTLTISSLQAEDVAVYFCQQYNSYPLTFGAGTKVEIKRTVAAPSVFIFPPSDEQLKSGTASVVCLLNNFYPREAKVQWKVDNALQSGNSQESVTEQDSKDSTYSLSSTLTLSKADYEKHKVYACEVTHQGLSSPVTKSFNRGEC
notes: 1+1 Fab-scFv-Fc format; also called prototype PSMA x CD28 bsAb; 1A7_H1.14_L1
B8: XENP37903 (bispecific antibody)
heavy: EVQLVQSGAEVKKPGASVKVSCKTSGYTFTEYTIHWVRQAPGQSLEWMGNINPNNGGTTYNQKFQGRVTITVDKSTSTAYMELSSLRSEDTAVYYCAAGWNFDYWGQGTLVTVSSASTKGPSVFPLAPSSKSTSGGTAALGCLVKDYFPEPVTVSWNSGALTSGVHTFPAVLQSSGLYSLSSVVTVPSSSLGTQTYICNVNHKPSDTKVDKKVEPKSCDKTHTCPPCPAPPVAGPSVFLFPPKPKDTLMISRTPEVTCVVVDVKHEDPEVKFNWYVDGVEVHNAKTKPREEEYNSTYRVVSVLTVLHQDWLNGKEYKCKVSNKALPAPIEKTISKAKGQPREPQVYTLPPSREEMTKNQVSLTCDVSGFYPSDIAVEWESDGQPENNYKTTPPVLDSDGSFFLYSKLTVDKSRWEQGDVFSCSVMHEALHNHYTQKSLSLSPGK
scFv-Fc: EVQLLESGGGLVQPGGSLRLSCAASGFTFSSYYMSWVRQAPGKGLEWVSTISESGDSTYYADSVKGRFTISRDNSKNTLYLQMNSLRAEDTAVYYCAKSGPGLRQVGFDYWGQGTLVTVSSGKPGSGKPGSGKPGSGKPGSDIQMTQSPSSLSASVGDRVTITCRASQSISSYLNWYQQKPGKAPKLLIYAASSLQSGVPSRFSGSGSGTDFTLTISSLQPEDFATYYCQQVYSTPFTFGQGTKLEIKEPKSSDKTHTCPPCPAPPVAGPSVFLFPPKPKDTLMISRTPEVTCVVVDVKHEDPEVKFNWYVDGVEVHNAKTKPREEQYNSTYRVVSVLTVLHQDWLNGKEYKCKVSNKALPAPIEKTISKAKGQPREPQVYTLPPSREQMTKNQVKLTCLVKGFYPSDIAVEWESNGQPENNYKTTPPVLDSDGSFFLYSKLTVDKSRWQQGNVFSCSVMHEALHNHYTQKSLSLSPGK
light: DIVMTQSPDSLAVSLGERATLSCRASQDVGTAVDWYQQKPDQSPKLLIYWASTRHTGVPDRFTGSGSGTDFTLTISSLQAEDVAVYFCQQYNSYPLTFGAGTKVEIKRTVAAPSVFIFPPSDEQLKSGTASVVCLLNNFYPREAKVQWKVDNALQSGNSQESVTEQDSKDSTYSLSSTLTLSKADYEKHKVYACEVTHQGLSSPVTKSFNRGEC
notes: 1+1 Fab-scFv-Fc format; also called prototype PSMA x CD28 bsAb; 1A7_H1.14_L1.71
B9: XENP39234 PSMA (A10v2) x CD28 (37 nM) (bispecific antibody)
heavy: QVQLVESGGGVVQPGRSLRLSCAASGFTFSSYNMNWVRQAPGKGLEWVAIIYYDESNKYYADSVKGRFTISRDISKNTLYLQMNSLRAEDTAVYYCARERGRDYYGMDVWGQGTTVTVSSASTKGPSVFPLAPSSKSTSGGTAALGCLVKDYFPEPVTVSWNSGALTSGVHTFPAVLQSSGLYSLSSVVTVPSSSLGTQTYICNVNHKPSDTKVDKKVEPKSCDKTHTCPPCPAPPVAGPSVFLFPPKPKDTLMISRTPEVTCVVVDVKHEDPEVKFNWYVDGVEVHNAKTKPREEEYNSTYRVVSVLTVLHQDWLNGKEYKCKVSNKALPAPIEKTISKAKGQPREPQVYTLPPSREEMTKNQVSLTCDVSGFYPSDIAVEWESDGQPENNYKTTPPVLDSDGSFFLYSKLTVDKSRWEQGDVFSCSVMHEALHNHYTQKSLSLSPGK
scFv-Fc: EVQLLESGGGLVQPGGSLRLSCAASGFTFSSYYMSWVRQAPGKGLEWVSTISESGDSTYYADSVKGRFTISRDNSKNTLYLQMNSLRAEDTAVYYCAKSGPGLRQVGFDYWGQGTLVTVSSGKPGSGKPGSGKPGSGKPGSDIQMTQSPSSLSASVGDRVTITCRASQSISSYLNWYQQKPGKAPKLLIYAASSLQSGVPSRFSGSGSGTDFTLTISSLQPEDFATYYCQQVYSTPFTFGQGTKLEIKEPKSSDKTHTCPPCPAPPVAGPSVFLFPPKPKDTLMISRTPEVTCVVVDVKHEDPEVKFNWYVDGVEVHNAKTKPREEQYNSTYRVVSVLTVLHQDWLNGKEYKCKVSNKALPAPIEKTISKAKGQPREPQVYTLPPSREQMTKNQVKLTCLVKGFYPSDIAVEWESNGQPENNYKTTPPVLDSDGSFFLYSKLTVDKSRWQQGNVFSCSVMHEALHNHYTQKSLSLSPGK
light: SYELMQPPSVSVSPGQTARITCSGDALPKQYAYWYQQKPGQAPVLVIYKDSERPSGIPVRFSGSSSGTTVTLTITGVQAEDEADYYCQSADSSGTYVFGTGTKVTVLGQPKAAPSVTLFPPSSEELQANKATLVCLISDFYPGAVTVAWKADSSPVKAGVETTTPSKQSNNKYAASSYLSLTPEQWKSHRSYSCQVTHEGSTVEKTVAPTECS
notes: Member of group m19
B10: XENP39233 PSMA (A10v2) x CD28 (96 nM) (bispecific antibody)
heavy: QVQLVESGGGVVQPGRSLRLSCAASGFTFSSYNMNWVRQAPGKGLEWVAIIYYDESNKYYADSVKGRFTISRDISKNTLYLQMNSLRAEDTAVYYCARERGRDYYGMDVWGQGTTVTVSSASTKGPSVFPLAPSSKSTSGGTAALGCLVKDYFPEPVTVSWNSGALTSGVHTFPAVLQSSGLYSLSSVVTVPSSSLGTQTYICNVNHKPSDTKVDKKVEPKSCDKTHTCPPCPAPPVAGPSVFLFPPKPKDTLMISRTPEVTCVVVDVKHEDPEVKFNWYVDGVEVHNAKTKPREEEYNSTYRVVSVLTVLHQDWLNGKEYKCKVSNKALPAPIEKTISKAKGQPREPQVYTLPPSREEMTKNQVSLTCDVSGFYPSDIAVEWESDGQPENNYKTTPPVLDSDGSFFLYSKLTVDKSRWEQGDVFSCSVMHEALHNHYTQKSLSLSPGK
scFv-Fc: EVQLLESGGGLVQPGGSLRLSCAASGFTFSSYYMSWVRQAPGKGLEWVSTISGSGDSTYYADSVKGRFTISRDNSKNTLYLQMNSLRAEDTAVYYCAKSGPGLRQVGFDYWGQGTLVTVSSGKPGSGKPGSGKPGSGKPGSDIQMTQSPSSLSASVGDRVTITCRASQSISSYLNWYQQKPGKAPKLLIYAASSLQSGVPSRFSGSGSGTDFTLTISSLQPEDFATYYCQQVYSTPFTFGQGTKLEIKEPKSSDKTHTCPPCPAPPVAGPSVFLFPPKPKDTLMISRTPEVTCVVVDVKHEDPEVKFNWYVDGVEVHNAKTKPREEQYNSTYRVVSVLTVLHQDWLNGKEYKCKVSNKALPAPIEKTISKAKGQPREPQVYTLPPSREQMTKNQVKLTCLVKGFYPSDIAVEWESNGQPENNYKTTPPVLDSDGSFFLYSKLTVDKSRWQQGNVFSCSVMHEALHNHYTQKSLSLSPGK
light: SYELMQPPSVSVSPGQTARITCSGDALPKQYAYWYQQKPGQAPVLVIYKDSERPSGIPVRFSGSSSGTTVTLTITGVQAEDEADYYCQSADSSGTYVFGTGTKVTVLGQPKAAPSVTLFPPSSEELQANKATLVCLISDFYPGAVTVAWKADSSPVKAGVETTTPSKQSNNKYAASSYLSLTPEQWKSHRSYSCQVTHEGSTVEKTVAPTECS
notes: Member of group m19
B11: C28PB318.002 PSMA (A10v2) x CD28 (96 nM) (bispecific antibody)
scFv-Fc: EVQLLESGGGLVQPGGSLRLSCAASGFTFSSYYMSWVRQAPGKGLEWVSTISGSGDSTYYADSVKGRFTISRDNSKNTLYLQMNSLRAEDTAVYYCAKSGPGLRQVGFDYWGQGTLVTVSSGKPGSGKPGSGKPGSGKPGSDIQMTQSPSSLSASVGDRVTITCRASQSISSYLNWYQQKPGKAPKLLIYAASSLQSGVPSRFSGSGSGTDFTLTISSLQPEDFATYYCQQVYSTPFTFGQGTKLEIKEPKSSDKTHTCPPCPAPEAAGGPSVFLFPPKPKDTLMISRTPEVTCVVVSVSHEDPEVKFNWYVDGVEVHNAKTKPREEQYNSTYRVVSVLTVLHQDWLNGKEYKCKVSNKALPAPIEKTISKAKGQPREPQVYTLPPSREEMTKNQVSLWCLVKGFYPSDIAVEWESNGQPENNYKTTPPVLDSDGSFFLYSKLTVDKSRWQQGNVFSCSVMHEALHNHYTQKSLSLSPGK
heavy: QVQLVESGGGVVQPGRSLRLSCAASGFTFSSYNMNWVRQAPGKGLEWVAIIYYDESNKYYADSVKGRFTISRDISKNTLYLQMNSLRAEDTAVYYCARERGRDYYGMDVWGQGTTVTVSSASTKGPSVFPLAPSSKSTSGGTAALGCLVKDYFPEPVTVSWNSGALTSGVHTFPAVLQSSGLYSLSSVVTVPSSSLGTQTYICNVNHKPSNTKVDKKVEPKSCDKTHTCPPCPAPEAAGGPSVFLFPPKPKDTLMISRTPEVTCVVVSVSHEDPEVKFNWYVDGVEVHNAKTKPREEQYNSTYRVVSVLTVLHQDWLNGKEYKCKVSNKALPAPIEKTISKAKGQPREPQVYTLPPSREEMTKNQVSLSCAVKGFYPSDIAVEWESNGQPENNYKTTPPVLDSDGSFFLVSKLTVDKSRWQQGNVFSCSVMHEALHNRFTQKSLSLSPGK
light: SYELMQPPSVSVSPGQTARITCSGDALPKQYAYWYQQKPGQAPVLVIYKDSERPSGIPVRFSGSSSGTTVTLTITGVQAEDEADYYCQSADSSGTYVFGTGTKVTVLGQPKAAPSVTLFPPSSEELQANKATLVCLISDFYPGAVTVAWKADSSPVKAGVETTTPSKQSNNKYAASSYLSLTPEQWKSHRSYSCQVTHEGSTVEKTVAPTECS
B12: C28PB294.002 PSMA (A10v2) x CD28 (37 nM) (bispecific antibody)
scFv-Fc: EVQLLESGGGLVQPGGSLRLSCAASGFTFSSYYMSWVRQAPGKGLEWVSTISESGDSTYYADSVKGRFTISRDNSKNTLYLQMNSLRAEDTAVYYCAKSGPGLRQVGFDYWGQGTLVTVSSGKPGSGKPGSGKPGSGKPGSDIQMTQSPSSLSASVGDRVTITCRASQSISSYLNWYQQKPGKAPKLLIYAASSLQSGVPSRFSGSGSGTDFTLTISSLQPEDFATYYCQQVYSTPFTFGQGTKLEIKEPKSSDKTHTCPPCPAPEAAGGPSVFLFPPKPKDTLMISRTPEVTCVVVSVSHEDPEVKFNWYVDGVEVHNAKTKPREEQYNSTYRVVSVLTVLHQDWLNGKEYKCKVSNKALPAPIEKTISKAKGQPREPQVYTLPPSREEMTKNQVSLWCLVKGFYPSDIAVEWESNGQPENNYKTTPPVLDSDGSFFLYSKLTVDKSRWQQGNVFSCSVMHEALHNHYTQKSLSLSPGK
heavy: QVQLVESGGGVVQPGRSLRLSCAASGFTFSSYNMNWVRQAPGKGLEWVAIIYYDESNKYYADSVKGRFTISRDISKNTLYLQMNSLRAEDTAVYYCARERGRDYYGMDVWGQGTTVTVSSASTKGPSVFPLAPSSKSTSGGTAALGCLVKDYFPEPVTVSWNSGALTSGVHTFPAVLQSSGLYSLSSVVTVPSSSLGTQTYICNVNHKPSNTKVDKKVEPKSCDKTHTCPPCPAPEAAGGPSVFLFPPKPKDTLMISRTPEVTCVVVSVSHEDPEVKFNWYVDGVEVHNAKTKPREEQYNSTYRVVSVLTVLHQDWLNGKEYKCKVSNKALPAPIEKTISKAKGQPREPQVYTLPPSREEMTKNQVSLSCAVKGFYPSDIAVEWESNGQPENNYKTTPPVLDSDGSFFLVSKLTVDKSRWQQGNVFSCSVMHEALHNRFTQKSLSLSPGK
light: SYELMQPPSVSVSPGQTARITCSGDALPKQYAYWYQQKPGQAPVLVIYKDSERPSGIPVRFSGSSSGTTVTLTITGVQAEDEADYYCQSADSSGTYVFGTGTKVTVLGQPKAAPSVTLFPPSSEELQANKATLVCLISDFYPGAVTVAWKADSSPVKAGVETTTPSKQSNNKYAASSYLSLTPEQWKSHRSYSCQVTHEGSTVEKTVAPTECS
B13: C28PB330.002 PSMA (A10v2) x CD28 (180 nM) (bispecific antibody)
first monomer: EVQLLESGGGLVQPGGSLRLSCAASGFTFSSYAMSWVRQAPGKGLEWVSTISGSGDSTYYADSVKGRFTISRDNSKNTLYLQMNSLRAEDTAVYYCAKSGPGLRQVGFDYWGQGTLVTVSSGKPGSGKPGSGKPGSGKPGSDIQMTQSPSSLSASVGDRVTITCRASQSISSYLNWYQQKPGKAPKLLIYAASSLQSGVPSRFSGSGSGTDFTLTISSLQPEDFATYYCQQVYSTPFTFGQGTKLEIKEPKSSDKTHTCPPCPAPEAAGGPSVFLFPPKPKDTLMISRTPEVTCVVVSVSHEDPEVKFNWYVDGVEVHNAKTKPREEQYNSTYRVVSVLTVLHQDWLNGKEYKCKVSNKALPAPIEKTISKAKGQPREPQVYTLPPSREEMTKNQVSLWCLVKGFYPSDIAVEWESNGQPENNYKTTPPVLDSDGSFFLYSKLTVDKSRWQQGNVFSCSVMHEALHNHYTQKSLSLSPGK
second monomer: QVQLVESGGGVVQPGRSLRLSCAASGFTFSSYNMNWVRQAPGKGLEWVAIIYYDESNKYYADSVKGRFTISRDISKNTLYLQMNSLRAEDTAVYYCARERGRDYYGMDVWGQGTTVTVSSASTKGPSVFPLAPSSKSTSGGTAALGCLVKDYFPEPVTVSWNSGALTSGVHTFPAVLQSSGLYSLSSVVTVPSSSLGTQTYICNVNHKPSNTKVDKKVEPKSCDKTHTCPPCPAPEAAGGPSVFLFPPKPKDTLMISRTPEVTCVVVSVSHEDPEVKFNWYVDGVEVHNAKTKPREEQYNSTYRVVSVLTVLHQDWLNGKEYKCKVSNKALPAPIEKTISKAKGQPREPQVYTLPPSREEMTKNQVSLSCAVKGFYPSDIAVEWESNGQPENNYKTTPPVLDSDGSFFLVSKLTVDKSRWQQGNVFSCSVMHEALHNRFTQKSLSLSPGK
light chain: SYELMQPPSVSVSPGQTARITCSGDALPKQYAYWYQQKPGQAPVLVIYKDSERPSGIPVRFSGSSSGTTVTLTITGVQAEDEADYYCQSADSSGTYVFGTGTKVTVLGQPKAAPSVTLFPPSSEELQANKATLVCLISDFYPGAVTVAWKADSSPVKAGVETTTPSKQSNNKYAASSYLSLTPEQWKSHRSYSCQVTHEGSTVEKTVAPTECS

What follows are binders tested against T1, CD28 antigen used for the affinity determinations (human, UniProt P10747 19-152, limits assumed) (assay: Octet (BLI), apparent dissociation constant (KDapp) of the bivalent mAb for CD28).
T1 construct: Octet/BLI is described only for the bivalent mAbs
B1 gave a Kd of 14.5 nM.

The binders below were run against T2, human PSMA on the surface of prostate cancer cell lines (C42B / C42B-NLR, 22Rv1 / 22Rv1-NLR, PSMA-transfected … (human, UniProt Q04609 1-750)) (assay: flow cytometry on C42B-NLR (PSMA hi) cells, 30 min at 37 degrees, detection with anti-human-Ig-FITC).
T2 construct: whole, on cells; also called Prostate Specific Membrane Antigen
B2: binds.
B3: binds.
B4: binds.
B5: binds.
B6: binds.

Each binder was assayed against T1, CD28 antigen used for the affinity … (assay: CD28 binding affinity of the scFv arm (monovalent, scFv in 1+1 Fab-scFv-Fc bsAb, FIG. 20); method not stated).
B7 gave a Kd of 230 nM.
B8 showed a Kd of 37 nM.

What follows are binders tested against T2, human PSMA on the surface of prostate … (assay: binding to C4-2B (C42B, PSMA^hi) cells, MFI against concentration, least squares fit).
In the case of B9, the “EC50 (read off the curve)” value is reported as about 3 nM.
B10 was tested, and the “EC50 (read off the curve)” value was about 2 nM.
For B11, the “EC50 (read off the curve)” value was about 2 nM.
With B12 the “EC50 (read off the curve)” value was about 3 nM.
In the case of B13, the “EC50 (read off the curve)” value is reported as about 3 nM.
